Our source for the response values is PMC4920195, “Non-Smc element 5 (Nse5) of the Smc5/6 complex interacts with SUMO pathway components” (Biology Open, 2016).

First the molecules themselves.
B1: Nse5-LexA (wild type) [S. cerevisiae] / Nse6-AD [S. cerevisiae] (parent complex)
chain 1: MDGALINSVLYVSPRNGAHYFVELTEKHLLAFEMLNSMCLLENYDHVLLFLECQFGKSHNLAVIPFDIILVLFTLSTLSEYYKEPILRANDPYNTSRETLSRRALKLLQKYLAILKEFDSEQYNLYDLELLRCQFFLAIDTLTPKKQKWGFDRFRRTKSESGVTYRQNASVDPELDQAKTFKNPYRSYISCLEQRNTILGNRLLNLKLNEPGEFINMILWTLSNSLQESTPLFLSSHEIWMPLLEILIDLFSCRQDYFIQHEVAQNVSKSLFVQRLSESPLAVFFESLNTRNFANRFSEYVFLNCDYKLPSDNYATPVHPVYNGENTIVDTYIPTIKCSPLYKSQKSLALRRKLIGSCFKLLLRVPDGHRLITPRIVADDVIQGISRTLASFNDILQFKKFFMTENLSQESYFIPLLAEGTLSEILKDTQECVVILTLVENLSDGVSFCNEVIGLVKSKCFAFTEQCSQASYEEAVLNIEKCDVCLLVLLRYLLHLIGTEAILDAKEQLEMLHAIEKNDSGRRQWAKALNLGNDPPLLYPIVSQMFGVHDKSVIIE
chain 2: MGSVNSSPNEEFETVPDSQISGFDSPLIPTSVGSYFRDDDDDEKVHPNFISDPENDSLNSDEEFSSLENSDLNLSGAKAESGDDFDPILKRTIISKRKAPSNNEDEEIVKTPRKLVNYVPLKIFNLGDSFDDTITTTVAKLQDLKKEILDSPRSNKSIVITSNTVAKSELQKSIKFSGSIPEIYLDVVTKETISDKYKDWHFISKNCHYEQLMDLEMKDTAYSFLFGSSRSQGKVPEFVHLKCPSITNLLVLFGVNQEKCNSLKINYEKKENSRYDNLCTIFPVNKMLKFLMYFYSDDDNDDVREFFLKAFICLILDRKVFNAMESDHRLCFKVLELFNEAHFINSYFEIVDKNDFFLHYRLLQIFPHLQSALLRRRFSEKQGRTETIQQNIIKEFNEFFDCKNYKNLLYFILTMYGSKFIPFGPKCQVTEYFKDCILDISNETTNDVEISILKGILNLFSKIR
B2: Nse5-LexA (wild type) [S. cerevisiae] / Smt3-AD [S. cerevisiae] (parent complex)
chain 1: B1 chain 1
chain 2: MSDSEVNQEAKPEVKPEVKPETHINLKVSDGSSEIFFKIKKTTPLRRLMEAFAKRQGKEMDSLRFLYDGIRIQADQTPEDLDMEDNDIIEAHREQIGGATY

In the first test the parent is B1. The test can be described thus: yeast two-hybrid (β-galactosidase); gal (induced) bar; vector bait control 2.8; parent: 2.45e+03.
As for chain 1 MDGALINSVLYVSPRNGAHYFVELTEKHLLAFEMLNSMCLLENYDHVLLFLECQFGKSHNLAVIPFDIILVLFTLSTLSEYYKEPILRANDPYNTSRETLSRRALKLLQKYLAILKEFDSEQYNLYDLELLRCQFFLAIDTLTPKKQKWGFDRFRRTKSESGVTYRQNASVDPELDQAKTFKNPYRSYISCLEQRNTILGNRLLNLKLNEPGEFINMILWTLSNSLQESTPLFLSSHEIWMPLLEIAIDLFSCRQDYFIQHEVAQNVSKSLFVQRLSESPLAVFFESLNTRNFANRFSEYVFLNCDYKLPSDNYATPVHPVYNGENTIVDTYIPTIKCSPLYKSQKSLALRRKLIGSCFKLLLRVPDGHRLITPRIVADDVIQGISRTLASFNDILQFKKFFMTENLSQESYFIPLLAEGTLSEILKDTQECVVILTLVENLSDGVSFCNEVIGLVKSKCFAFTEQCSQASYEEAVLNIEKCDVCLLVLLRYLLHLIGTEAILDAKEQLEMLHAIEKNDSGRRQWAKALNLGNDPPLLYPIVSQMFGVHDKSVIIE [chain 1 L247A], the response is 2570 β-galactosidase activity units. Still for that read-out and setting: to chain 1 MDGALINSVLYVSPRNGAHYFVELTEKHLLAFEMLNSMCLLENYDHVLLFLECQFGKSHNLAVIPFDIIAVLFTLSTLSEYYKEPILRANDPYNTSRETLSRRALKLLQKYLAILKEFDSEQYNLYDLELLRCQFFLAIDTLTPKKQKWGFDRFRRTKSESGVTYRQNASVDPELDQAKTFKNPYRSYISCLEQRNTILGNRLLNLKLNEPGEFINMILWTLSNSLQESTPLFLSSHEIWMPLLEILIDLFSCRQDYFIQHEVAQNVSKSLFVQRLSESPLAVFFESLNTRNFANRFSEYVFLNCDYKLPSDNYATPVHPVYNGENTIVDTYIPTIKCSPLYKSQKSLALRRKLIGSCFKLLLRVPDGHRLITPRIVADDVIQGISRTLASFNDILQFKKFFMTENLSQESYFIPLLAEGTLSEILKDTQECVVILTLVENLSDGVSFCNEVIGLVKSKCFAFTEQCSQASYEEAVLNIEKCDVCLLVLLRYLLHLIGTEAILDAKEQLEMLHAIEKNDSGRRQWAKALNLGNDPPLLYPIVSQMFGVHDKSVIIE [chain 1 L70A] belongs 2130 β-galactosidase activity units.

Variants of B1 are the subject of the next test. The test can be described thus: yeast two-hybrid (β-galactosidase); gal (induced) bar; parent: 2.45e+03.
For the variant chain 1 MDGALINSVLYVSPRNGAHYFVELTEKHLLAFEMLNSMCLLENYDHVLLFLECQFGKSHNLAVIPFDIILVLFTLSTLSEYYKEPILRANDPYNTSRETLSRRALKLLQKHLAILKEFDSEQYNLYDLELLRCQFFLAIDTLTPKKQKWGFDRFRRTKSESGVTYRQNASVDPELDQAKTFKNPYRSYISCLEQRNTILGNRLLNLKLNEPGEFINMILWTLSNSLQESTPLFLSSHEIWMPLLEILIDLFSCRQDYFIQHEVAQNVSKSLFVQRLSESPLAVFFESLNTRNFANRFSEYVFLNCDYKLPSDNYATPVHPVYNGENTIVDTYIPTIKCSPLYKSQKSLALRRKLIGSCFKLLLRVPDGHRLITPRIVADDVIQGISRTLASFNDILQFKKFFMTENLSQESYFIPLLAEGTLSEILKDTQECVVILTLVENLSDGVSFCNEVIGLVKSKCFAFTEQCSQASYEEAVLNIEKCDVCLLVLLRYLLHLIGTEAILDAKEQLEMLHAIEKNDSGRRQWAKALNLGNDPPLLYPIVSQMFGVHDKSVIIE [chain 1 Y111H], the response is 2170 β-galactosidase activity units. The same measure, in the same setting: the same measure for chain 1 MDGALINSVLYVSPRNGAHYFVELTEKHLLAFEMLNSMCLLENYDHVLLFLECQFGKSHNLAVIPFDIILVLFTLSTLSEYYKEPILRANDPYNTSRETLSRRALKLLQKYLAILKEFDSEQYNLYDLELLRCQFFLAIDTLTPKKQKWGFDRFRRTKSESGVTYRQNASVDPELDQAKTFKNPYRSYISCLEQRNTILGNRLLNLKLNEPGEFINMILWTLSNSLQESTPLFLSSHEIWMPLLEILIDLFSCRQDYFIQHEVAQNVSKSLFVQRLSESPLAVFFESLNTRNFANRFSEYVFLNCDYKLPSDNYATPVYPVYNGENTIVDTYIPTIKCSPLYKSQKSLALRRKLIGSCFKLLLRVPDGHRLITPRIVADDVIQGISRTLASFNDILQFKKFFMTENLSQESYFIPLLAEGTLSEILKDTQECVVILTLVENLSDGVSFCNEVIGLVKSKCFAFTEQCSQASYEEAVLNIEKCDVCLLVLLRYLLHLIGTEAILDAKEQLEMLHAIEKNDSGRRQWAKALNLGNDPPLLYPIVSQMFGVHDKSVIIE [chain 1 H319Y]: 2070 β-galactosidase activity units; for chain 1 MDGALINSVLYVSPRNGAHYFVELTEKHLLAFEMLNSMCLLENYDHVLLFLECQFGKSHNLAVIPFDIILVLFTLSTLSEYYKEPILRANDPYNTSRETLSRRALKLLQKYLAILKEFDSEQHNLYDLELLRCQFFLAIDTLTPKKQKWGFDRFRRTKSESGVTYRQNASVDPELDQAKTFKNPYRSYISCLEQRNTILGNRLLNLKLNEPGEFINMILWTLSNSLQESTPLFLSSHEIWMPLLEILIDLFSCRQDYFIQHEVAQNVSKSLFVQRLSESPLAVFFESLNTRNFANRFSEYVFLNCDYKLPSDNYATPVHPVYNGENTIVDTYIPTIKCSPLYKSQKSLALRRKLIGSCFKLLLRVPDGHRLITPRIVADDVIQGISRTLASFNDILQFKKFFMTENLSQESYFIPLLAEGTLSEILKDTQECVVILTLVENLSDGVSFCNEVIGLVKSKCFAFTEQCSQASYEEAVLNIEKCDVCLLVLLRYLLHLIGTEAILDAKEQLEMLHAIEKNDSGRRQWAKALNLGNDPPLLYPIVSQMFGVHDKSVIIE [chain 1 Y123H]: 2190 β-galactosidase activity units.

Take chain 1 MDGALINSVLYVSPRNGAHYFVELTEKHLLAFEMLNSMCLLENYDHVLLFLECQFGKSHNLAVIPFDIILVLFTLSTLSEYYKEPILRANDPYNTSRETLSRRALKLLQKYLAILKEFDSEQYNLYDLELLRCQFFLAIDTLTPKKQKWGFDRFRRTKSESGVTYRQNASVDPELDQAKTFKDPYRSYISCLEQRNTILGNRLLNLKLNEPGEFINMILWTLSNSLQESTPLFLSSHEIWMPLLEILIDLFSCRQDYFIQHEVAQNVSKSLFVQRLSESPLAVFFESLNTRNFANRFSEYVFLNCDYKLPSDNYATPVHPVYNGENTIVDTYIPTIKCSPLYKSQKSLALRRKLIGSCFKLLLRVPDGHRLITPRIVADDVIQGISRTLASFNDILQFKKFFMTENLSQESYFIPLLAEGTLSEILKDTQECVVILTLVENLSDGVSFCNEVIGLVKSKCFAFTEQCSQASYEEAVLNIEKCDVCLLVLLRYLLHLIGTEAILDAKEQLEMLHAIEKNDSGRRQWAKALNLGNDPPLLYPIVSQMFGVHDKSVIIE [chain 1 N183D]: the response was 2140 β-galactosidase activity units.

Variants of B2 are the subject of another test. The test can be described thus: yeast two-hybrid (β-galactosidase); gal (induced) bar; vector bait control 7.3; parent: 1.95e+03.
For the variant chain 1 MDGALINSVLYVSPRNGAHYFVELTEKHLLAFEMLNSMCLLENYDHVLLFLECQFGKSHNLAVIPFDIILVLFTLSTLSEYYKEPILRANDPYNTSRETLSRRALKLLQKYLAILKEFDSEQYNLYDLELLRCQFFLAIDTLTPKKQKWGFDRFRRTKSESGVTYRQNASVDPELDQAKTFKNPYRSYISCLEQRNTILGNRLLNLKLNEPGEFINMILWTLSNSLQESTPLFLSSHEIWMPLLEIAIDLFSCRQDYFIQHEVAQNVSKSLFVQRLSESPLAVFFESLNTRNFANRFSEYVFLNCDYKLPSDNYATPVHPVYNGENTIVDTYIPTIKCSPLYKSQKSLALRRKLIGSCFKLLLRVPDGHRLITPRIVADDVIQGISRTLASFNDILQFKKFFMTENLSQESYFIPLLAEGTLSEILKDTQECVVILTLVENLSDGVSFCNEVIGLVKSKCFAFTEQCSQASYEEAVLNIEKCDVCLLVLLRYLLHLIGTEAILDAKEQLEMLHAIEKNDSGRRQWAKALNLGNDPPLLYPIVSQMFGVHDKSVIIE [chain 1 L247A], the response was 7.4 β-galactosidase activity units. Turning to chain 1 MDGALINSVLYVSPRNGAHYFVELTEKHLLAFEMLNSMCLLENYDHVLLFLECQFGKSHNLAVIPFDIIAVLFTLSTLSEYYKEPILRANDPYNTSRETLSRRALKLLQKYLAILKEFDSEQYNLYDLELLRCQFFLAIDTLTPKKQKWGFDRFRRTKSESGVTYRQNASVDPELDQAKTFKNPYRSYISCLEQRNTILGNRLLNLKLNEPGEFINMILWTLSNSLQESTPLFLSSHEIWMPLLEIAIDLFSCRQDYFIQHEVAQNVSKSLFVQRLSESPLAVFFESLNTRNFANRFSEYVFLNCDYKLPSDNYATPVHPVYNGENTIVDTYIPTIKCSPLYKSQKSLALRRKLIGSCFKLLLRVPDGHRLITPRIVADDVIQGISRTLASFNDILQFKKFFMTENLSQESYFIPLLAEGTLSEILKDTQECVVILTLVENLSDGVSFCNEVIGLVKSKCFAFTEQCSQASYEEAVLNIEKCDVCLLVLLRYLLHLIGTEAILDAKEQLEMLHAIEKNDSGRRQWAKALNLGNDPPLLYPIVSQMFGVHDKSVIIE [chain 1 L70A, chain 1 L247A], the response was 6.6 β-galactosidase activity units. On the same count and under the same terms, to chain 1 MDGALINSVLYVSPRNGAHYFVELTEKHLLAFEMLNSMCLLENYDHVLLFLECQFGKSHNLAVIPFDIIAVLFTLSTLSEYYKEPILRANDPYNTSRETLSRRALKLLQKYLAILKEFDSEQYNLYDLELLRCQFFLAIDTLTPKKQKWGFDRFRRTKSESGVTYRQNASVDPELDQAKTFKNPYRSYISCLEQRNTILGNRLLNLKLNEPGEFINMILWTLSNSLQESTPLFLSSHEIWMPLLEILIDLFSCRQDYFIQHEVAQNVSKSLFVQRLSESPLAVFFESLNTRNFANRFSEYVFLNCDYKLPSDNYATPVHPVYNGENTIVDTYIPTIKCSPLYKSQKSLALRRKLIGSCFKLLLRVPDGHRLITPRIVADDVIQGISRTLASFNDILQFKKFFMTENLSQESYFIPLLAEGTLSEILKDTQECVVILTLVENLSDGVSFCNEVIGLVKSKCFAFTEQCSQASYEEAVLNIEKCDVCLLVLLRYLLHLIGTEAILDAKEQLEMLHAIEKNDSGRRQWAKALNLGNDPPLLYPIVSQMFGVHDKSVIIE [chain 1 L70A] belongs 7.8 β-galactosidase activity units.
